Broadly, the Kd is the equilibrium constant for the complex coming apart.

Holding throughout (experiment): BLI
Conditions in all cases: both partners purified

For experiment [1], the target named is T1, CoV2 Parental S-RBD fused with human Fc (SARS-CoV-2, UniProt P0DTC2).
T1 construct: also called Parental RBD; RBD-Fc

In experiment [2] the target is T2, CoV2 Parental S-RBD fused with human Fc (SARS-CoV-2, UniProt P0DTC2).
T2 construct: also called Parental RBD; RBD-Fc (Parental)

Experiment [3] has as its target T3, CoV2 Omicron S-RBD with human Fc (SARS-CoV-2, UniProt P0DTC2).
T3 construct: also called Omicron RBD; RBD-Fc (Omicron)

Several values for one entry are separate records, joined by “and”; a condition that tells them apart may be missing. Identical values can stand only once.

B1: shACE2 N90A/N322A double glycan deletant (domain or fragment)
chain: STIEEQAKTFLDKFNHEAEDLFYQSSLASWNYNTNITEENVQNMNNAGDKWSAFLKEQSTLAQMYPLQEIQALTVKLQLQALQQNGSSVLSEDKSKRLNTILNTMSTIYSTGKVCNPDNPQECLLLEPGLNEIMANSLDYNERLWAWESWRSEVGKQLRPLYEEYVVLKNEMARANHYEDYGDYWRGDYEVNGVDGYDYSRGQLIEDVEHTFEEIKPLYEHLHAYVRAKLMNAYPSYISPIGCLPAHLLGDMWGRFWTNLYSLTVPFGQKPNIDVTDAMVDQAWDAQRIFKEAEKFFVSVGLPAMTQGFWENSMLTDPGNVQKAVCHPTAWDLGKGDFRILMCTKVTMDDFLTAHHEMGHIQYDMAYAAQPFLLRNGANEGFHEAVGEIMSLSAATPKHLKSIGLLSPDFQEDNETEINFLLKQALTIVGTLPFTYMLEKWRWMVFKGEIPKDQWMKKWWEMKREIVGVVEPVPHDETYCDPASLFHVSNDYSFIRYYTRTLYQFQFQEALCQAAKHEGPLHKCDISNSTEAGQKLFNMLRLGKSEPWTLALENVVGAKNMNVRPLLNYFEPLFTWLKDQNKNSFVGWSTDWSPYADQSIK
notes: also called N90A/N322A double deletant
Turning to B1, the equilibrium dissociation constant (Kd) in experiment [1] was found to be 115 nM.

B2: soluble hACE2 N53A/N90A (receptor)
chain: STIEEQAKTFLDKFNHEAEDLFYQSSLASWNYNTAITEENVQNMNNAGDKWSAFLKEQSTLAQMYPLQEIQALTVKLQLQALQQNGSSVLSEDKSKRLNTILNTMSTIYSTGKVCNPDNPQECLLLEPGLNEIMANSLDYNERLWAWESWRSEVGKQLRPLYEEYVVLKNEMARANHYEDYGDYWRGDYEVNGVDGYDYSRGQLIEDVEHTFEEIKPLYEHLHAYVRAKLMNAYPSYISPIGCLPAHLLGDMWGRFWTNLYSLTVPFGQKPNIDVTDAMVDQAWDAQRIFKEAEKFFVSVGLPNMTQGFWENSMLTDPGNVQKAVCHPTAWDLGKGDFRILMCTKVTMDDFLTAHHEMGHIQYDMAYAAQPFLLRNGANEGFHEAVGEIMSLSAATPKHLKSIGLLSPDFQEDNETEINFLLKQALTIVGTLPFTYMLEKWRWMVFKGEIPKDQWMKKWWEMKREIVGVVEPVPHDETYCDPASLFHVSNDYSFIRYYTRTLYQFQFQEALCQAAKHEGPLHKCDISNSTEAGQKLFNMLRLGKSEPWTLALENVVGAKNMNVRPLLNYFEPLFTWLKDQNKNSFVGWSTDWSPYADQSIK
notes: also called double glycan deletant
On to B2, for which the Kd in experiment [2] is 220 nM and 246 nM and 233 nM; in experiment [3], 83.2 nM and 116 nM and 99.5 nM.

B3: soluble hACE2 N53S/N90S (receptor)
chain: STIEEQAKTFLDKFNHEAEDLFYQSSLASWNYNTSITEENVQNMNNAGDKWSAFLKEQSTLAQMYPLQEIQSLTVKLQLQALQQNGSSVLSEDKSKRLNTILNTMSTIYSTGKVCNPDNPQECLLLEPGLNEIMANSLDYNERLWAWESWRSEVGKQLRPLYEEYVVLKNEMARANHYEDYGDYWRGDYEVNGVDGYDYSRGQLIEDVEHTFEEIKPLYEHLHAYVRAKLMNAYPSYISPIGCLPAHLLGDMWGRFWTNLYSLTVPFGQKPNIDVTDAMVDQAWDAQRIFKEAEKFFVSVGLPNMTQGFWENSMLTDPGNVQKAVCHPTAWDLGKGDFRILMCTKVTMDDFLTAHHEMGHIQYDMAYAAQPFLLRNGANEGFHEAVGEIMSLSAATPKHLKSIGLLSPDFQEDNETEINFLLKQALTIVGTLPFTYMLEKWRWMVFKGEIPKDQWMKKWWEMKREIVGVVEPVPHDETYCDPASLFHVSNDYSFIRYYTRTLYQFQFQEALCQAAKHEGPLHKCDISNSTEAGQKLFNMLRLGKSEPWTLALENVVGAKNMNVRPLLNYFEPLFTWLKDQNKNSFVGWSTDWSPYADQSIK
notes: as for B2
Take B3: the dissociation constant (Kd) in experiment [2] was 223 nM and 226 nM and 224 nM; in experiment [3], 101 nM and 123 nM and 112 nM.

B4: soluble hACE2 N53S/N90S/N322S (receptor)
chain: STIEEQAKTFLDKFNHEAEDLFYQSSLASWNYNTSITEENVQNMNNAGDKWSAFLKEQSTLAQMYPLQEIQSLTVKLQLQALQQNGSSVLSEDKSKRLNTILNTMSTIYSTGKVCNPDNPQECLLLEPGLNEIMANSLDYNERLWAWESWRSEVGKQLRPLYEEYVVLKNEMARANHYEDYGDYWRGDYEVNGVDGYDYSRGQLIEDVEHTFEEIKPLYEHLHAYVRAKLMNAYPSYISPIGCLPAHLLGDMWGRFWTNLYSLTVPFGQKPNIDVTDAMVDQAWDAQRIFKEAEKFFVSVGLPSMTQGFWENSMLTDPGNVQKAVCHPTAWDLGKGDFRILMCTKVTMDDFLTAHHEMGHIQYDMAYAAQPFLLRNGANEGFHEAVGEIMSLSAATPKHLKSIGLLSPDFQEDNETEINFLLKQALTIVGTLPFTYMLEKWRWMVFKGEIPKDQWMKKWWEMKREIVGVVEPVPHDETYCDPASLFHVSNDYSFIRYYTRTLYQFQFQEALCQAAKHEGPLHKCDISNSTEAGQKLFNMLRLGKSEPWTLALENVVGAKNMNVRPLLNYFEPLFTWLKDQNKNSFVGWSTDWSPYADQSIK
notes: also called triple glycan deletant
With B4, the Kd is 178 nM and 219 nM and 198 nM in experiment [2]; 64.7 nM and 72.7 nM and 68.7 nM in experiment [3].

B5: soluble hACE2 N53S/N322S (receptor)
chain: STIEEQAKTFLDKFNHEAEDLFYQSSLASWNYNTSITEENVQNMNNAGDKWSAFLKEQSTLAQMYPLQEIQNLTVKLQLQALQQNGSSVLSEDKSKRLNTILNTMSTIYSTGKVCNPDNPQECLLLEPGLNEIMANSLDYNERLWAWESWRSEVGKQLRPLYEEYVVLKNEMARANHYEDYGDYWRGDYEVNGVDGYDYSRGQLIEDVEHTFEEIKPLYEHLHAYVRAKLMNAYPSYISPIGCLPAHLLGDMWGRFWTNLYSLTVPFGQKPNIDVTDAMVDQAWDAQRIFKEAEKFFVSVGLPSMTQGFWENSMLTDPGNVQKAVCHPTAWDLGKGDFRILMCTKVTMDDFLTAHHEMGHIQYDMAYAAQPFLLRNGANEGFHEAVGEIMSLSAATPKHLKSIGLLSPDFQEDNETEINFLLKQALTIVGTLPFTYMLEKWRWMVFKGEIPKDQWMKKWWEMKREIVGVVEPVPHDETYCDPASLFHVSNDYSFIRYYTRTLYQFQFQEALCQAAKHEGPLHKCDISNSTEAGQKLFNMLRLGKSEPWTLALENVVGAKNMNVRPLLNYFEPLFTWLKDQNKNSFVGWSTDWSPYADQSIK
notes: as for B2
On to B5, for which the dissociation constant (Kd) in experiment [2] is 438 nM and 457 nM and 448 nM; in experiment [3], 163 nM and 162 nM (2×).

B6: soluble hACE2 N53A/N322A (receptor)
chain: STIEEQAKTFLDKFNHEAEDLFYQSSLASWNYNTAITEENVQNMNNAGDKWSAFLKEQSTLAQMYPLQEIQNLTVKLQLQALQQNGSSVLSEDKSKRLNTILNTMSTIYSTGKVCNPDNPQECLLLEPGLNEIMANSLDYNERLWAWESWRSEVGKQLRPLYEEYVVLKNEMARANHYEDYGDYWRGDYEVNGVDGYDYSRGQLIEDVEHTFEEIKPLYEHLHAYVRAKLMNAYPSYISPIGCLPAHLLGDMWGRFWTNLYSLTVPFGQKPNIDVTDAMVDQAWDAQRIFKEAEKFFVSVGLPAMTQGFWENSMLTDPGNVQKAVCHPTAWDLGKGDFRILMCTKVTMDDFLTAHHEMGHIQYDMAYAAQPFLLRNGANEGFHEAVGEIMSLSAATPKHLKSIGLLSPDFQEDNETEINFLLKQALTIVGTLPFTYMLEKWRWMVFKGEIPKDQWMKKWWEMKREIVGVVEPVPHDETYCDPASLFHVSNDYSFIRYYTRTLYQFQFQEALCQAAKHEGPLHKCDISNSTEAGQKLFNMLRLGKSEPWTLALENVVGAKNMNVRPLLNYFEPLFTWLKDQNKNSFVGWSTDWSPYADQSIK
notes: as for B2
With B6, the Kd in experiment [2] was 411 nM and 395 nM and 403 nM; in experiment [3], 164 nM and 139 nM and 151 nM.

B7: soluble hACE2 N90A/N322A (receptor)
chain: STIEEQAKTFLDKFNHEAEDLFYQSSLASWNYNTNITEENVQNMNNAGDKWSAFLKEQSTLAQMYPLQEIQALTVKLQLQALQQNGSSVLSEDKSKRLNTILNTMSTIYSTGKVCNPDNPQECLLLEPGLNEIMANSLDYNERLWAWESWRSEVGKQLRPLYEEYVVLKNEMARANHYEDYGDYWRGDYEVNGVDGYDYSRGQLIEDVEHTFEEIKPLYEHLHAYVRAKLMNAYPSYISPIGCLPAHLLGDMWGRFWTNLYSLTVPFGQKPNIDVTDAMVDQAWDAQRIFKEAEKFFVSVGLPAMTQGFWENSMLTDPGNVQKAVCHPTAWDLGKGDFRILMCTKVTMDDFLTAHHEMGHIQYDMAYAAQPFLLRNGANEGFHEAVGEIMSLSAATPKHLKSIGLLSPDFQEDNETEINFLLKQALTIVGTLPFTYMLEKWRWMVFKGEIPKDQWMKKWWEMKREIVGVVEPVPHDETYCDPASLFHVSNDYSFIRYYTRTLYQFQFQEALCQAAKHEGPLHKCDISNSTEAGQKLFNMLRLGKSEPWTLALENVVGAKNMNVRPLLNYFEPLFTWLKDQNKNSFVGWSTDWSPYADQSIK
notes: as for B1
With B7, the Kd in experiment [2] was 127 nM and 103 nM; in experiment [3] it was 36.5 nM and 36 nM and 36.3 nM.

B8: soluble hACE2 N53A/N90A/N322A (receptor)
chain: STIEEQAKTFLDKFNHEAEDLFYQSSLASWNYNTAITEENVQNMNNAGDKWSAFLKEQSTLAQMYPLQEIQALTVKLQLQALQQNGSSVLSEDKSKRLNTILNTMSTIYSTGKVCNPDNPQECLLLEPGLNEIMANSLDYNERLWAWESWRSEVGKQLRPLYEEYVVLKNEMARANHYEDYGDYWRGDYEVNGVDGYDYSRGQLIEDVEHTFEEIKPLYEHLHAYVRAKLMNAYPSYISPIGCLPAHLLGDMWGRFWTNLYSLTVPFGQKPNIDVTDAMVDQAWDAQRIFKEAEKFFVSVGLPAMTQGFWENSMLTDPGNVQKAVCHPTAWDLGKGDFRILMCTKVTMDDFLTAHHEMGHIQYDMAYAAQPFLLRNGANEGFHEAVGEIMSLSAATPKHLKSIGLLSPDFQEDNETEINFLLKQALTIVGTLPFTYMLEKWRWMVFKGEIPKDQWMKKWWEMKREIVGVVEPVPHDETYCDPASLFHVSNDYSFIRYYTRTLYQFQFQEALCQAAKHEGPLHKCDISNSTEAGQKLFNMLRLGKSEPWTLALENVVGAKNMNVRPLLNYFEPLFTWLKDQNKNSFVGWSTDWSPYADQSIK
notes: also called N53A/N90A/N322A triple deletant
With B8, the Kd in experiment [2] is 262 nM and 246 nM; in experiment [3] it was 67.1 nM and 75.5 nM and 71.3 nM.

B9: soluble hACE2 N90S/N322S (receptor)
chain: STIEEQAKTFLDKFNHEAEDLFYQSSLASWNYNTNITEENVQNMNNAGDKWSAFLKEQSTLAQMYPLQEIQSLTVKLQLQALQQNGSSVLSEDKSKRLNTILNTMSTIYSTGKVCNPDNPQECLLLEPGLNEIMANSLDYNERLWAWESWRSEVGKQLRPLYEEYVVLKNEMARANHYEDYGDYWRGDYEVNGVDGYDYSRGQLIEDVEHTFEEIKPLYEHLHAYVRAKLMNAYPSYISPIGCLPAHLLGDMWGRFWTNLYSLTVPFGQKPNIDVTDAMVDQAWDAQRIFKEAEKFFVSVGLPSMTQGFWENSMLTDPGNVQKAVCHPTAWDLGKGDFRILMCTKVTMDDFLTAHHEMGHIQYDMAYAAQPFLLRNGANEGFHEAVGEIMSLSAATPKHLKSIGLLSPDFQEDNETEINFLLKQALTIVGTLPFTYMLEKWRWMVFKGEIPKDQWMKKWWEMKREIVGVVEPVPHDETYCDPASLFHVSNDYSFIRYYTRTLYQFQFQEALCQAAKHEGPLHKCDISNSTEAGQKLFNMLRLGKSEPWTLALENVVGAKNMNVRPLLNYFEPLFTWLKDQNKNSFVGWSTDWSPYADQSIK
notes: as for B2
For the molecule B9, the Kd was 123 nM and 126 nM and 125 nM in experiment [2]; 38.2 nM and 38.5 nM and 38.4 nM in experiment [3].

The record behind these values is paper PMC9637154 (Communications Biology, 2022).
